From PMC4274662, “A novel cytosolic NADH:quinone oxidoreductase from Methanothermobacter marburgensis” (Bioscience Reports, 2014)

Key:
Format in all cases: biochemical, Methanothermobacter marburgensis
[1] = substrate: NC(=O)C1=CN([C@@H]2O[C@H](COP(=O)(O)OP(=O)(O)OC[C@H]3O[C@@H](n4cnc5c(N)ncnc54)[C@H](O)[C@@H]3O)[C@@H](O)[C@H]2O)C=CC1; assay: purified protein; details: 1 mM coenzyme Q1 as acceptor, 50 mM Mops pH 7.4, 30°C
[2] = substrate: NC(=O)C1=CN([C@@H]2O[C@H](COP(=O)(O)OP(=O)(O)OC[C@H]3O[C@@H](n4cnc5c(N)ncnc54)[C@H](OP(=O)(O)O)[C@@H]3O)[C@@H](O)[C@H]2O)C=CC1; assay: purified protein; details: 1 mM coenzyme Q1 as acceptor, 50 mM Mops pH 7.4, 30°C
[3] = substrate: CN(C)c1ccc(N=Nc2ccccc2C(=O)O)cc1; assay: reduction with electron donor, absorbance; details: electron acceptor, donor not stated (presumably NADH), varied substrate not stated, general method varies the donor, 50 mM Mops pH 7.4, 30°C

B1: MmNQO (Methanothermobacter marburgensis str. Marburg) (protein)
chain: MHVYILFAHPSRKSFSREVLEAFTEGLSEAGHTYEVGDLYRMNFRSELSQEEYLREISQEAGSPLPEDVMEEHERIGRADALAFIYPLWWSDCPAKLKGWFDRVWTYGYAYFYEDGERGTRIDIEKAVVLCSAGHTEEDLEGTGIAESMRSVMLGDRLLGVGVKNVTMEILGGMVPGDDSCREINLMRARRAGRNL
notes: full length 196 residues, N-terminal MAS added, non-cleavable C-terminal His6 tag (EHHHHHH) kept; pET21, E. coli BL21(DE3); 23538 Da; homodimer with FMN
Km [1]: 96.8 µM
kcat [1]: 0.26 s⁻¹
kcat/Km [1]: 2680 M⁻¹ s⁻¹
Km [2]: 111.6 µM
kcat [2]: 0.243 s⁻¹
kcat/Km [2]: 2170 M⁻¹ s⁻¹
Km [3]: 683 µM
kcat [3]: 0.106 s⁻¹
